Tested on: Escherichia coli TOP10
Assay: shrunken log2 fold change of peptide-encoding DNA abundance (4.5 h post-induction vs induction); higher = less antimicrobial activity (less host growth inhibition)
Conditions: time post-induction: 4.5 h; library: site-saturation at positions 5, 18, 19, 20
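Further: peptides expressed intracellularly from a pBAD plasmid library in pooled LB shake-flask culture, induced with 0.3% L-arabinose, DNA abundance read by NGS, three biological replicates, DESeq2 with apeglm shrinkage.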

| Sequence | shrunken log2 fold change |
| --- | --- |
| RRIRHRPPRLPRPRPRPFLCPRP | -0.172 |
| RRIRDRPPRLPRPRPRPCGCPRP | 0.317 |
| RRIRKRPPRLPRPRPRPPDMPRP | 0.469 |
| RRIRRRPPRLPRPRPRPIAMPRP | 0.0579 |
| RRIRQRPPRLPRPRPRPGSHPRP | -0.108 |
| RRIRSRPPRLPRPRPRPHANPRP | -0.168 |
| RRIRLRPPRLPRPRPRPHQMPRP | -0.199 |
| RRIRHRPPRLPRPRPRPVCVPRP | -0.216 |
| RRIRYRPPRLPRPRPRPKVSPRP | -0.0576 |
| RRIRIRPPRLPRPRPRPWPDPRP | -0.207 |
| RRIRERPPRLPRPRPRPWRHPRP | -0.0998 |
| RRIRCRPPRLPRPRPRPGFNPRP | -0.391 |
| RRIRWRPPRLPRPRPRPYPAPRP | -0.0239 |
| RRIRTRPPRLPRPRPRPFEWPRP | -0.0651 |
| RRIRRRPPRLPRPRPRPRQNPRP | 0.419 |
| RRIRERPPRLPRPRPRPGYQPRP | -0.00905 |
| RRIRNRPPRLPRPRPRPLPLPRP | 0.187 |
| RRIRMRPPRLPRPRPRPDDRPRP | -0.012 |
| RRIRCRPPRLPRPRPRPFLGPRP | -0.305 |
| RRIRPRPPRLPRPRPRPWGPPRP | 0.368 |
| RRIRMRPPRLPRPRPRPQYDPRP | -0.204 |
| RRIRQRPPRLPRPRPRPQNLPRP | -0.0271 |
| RRIRRRPPRLPRPRPRPYVWPRP | -0.216 |
| RRIRRRPPRLPRPRPRPMIRPRP | 0.272 |
| RRIRYRPPRLPRPRPRPIMTPRP | -0.991 |

| Sequence | shrunken log2 fold change |
| --- | --- |
| RRIRLRPPRLPRPRPRPHYKPRP | -0.525 |
| RRIRGRPPRLPRPRPRPKQQPRP | 0.228 |
| RRIRLRPPRLPRPRPRPYWRPRP | 0.231 |
| RRIRPRPPRLPRPRPRPKMWPRP | 0.299 |
| RRIRQRPPRLPRPRPRPSYMPRP | -0.301 |
| RRIRVRPPRLPRPRPRPINSPRP | -0.022 |
| RRIRWRPPRLPRPRPRPMYKPRP | -0.0607 |
| RRIRVRPPRLPRPRPRPGHSPRP | -0.195 |
| RRIRTRPPRLPRPRPRPDRTPRP | -0.442 |
| RRIRKRPPRLPRPRPRPGYNPRP | 0.178 |
| RRIRGRPPRLPRPRPRPMFCPRP | 0.178 |
| RRIRGRPPRLPRPRPRPRTRPRP | 1.01 |
| RRIRMRPPRLPRPRPRPGEQPRP | 1.48 |
| RRIRTRPPRLPRPRPRPLSHPRP | -0.833 |
| RRIRQRPPRLPRPRPRPSMYPRP | -1.39 |
| RRIRCRPPRLPRPRPRPWCYPRP | -0.831 |
| RRIRSRPPRLPRPRPRPGGIPRP | 0.274 |
| RRIRKRPPRLPRPRPRPFREPRP | 0.223 |
| RRIRDRPPRLPRPRPRPPDSPRP | 0.0832 |
| RRIRCRPPRLPRPRPRPKEAPRP | 0.085 |
| RRIRMRPPRLPRPRPRPIHQPRP | -0.108 |
| RRIRCRPPRLPRPRPRPAINPRP | -0.606 |
| RRIRKRPPRLPRPRPRPIYFPRP | 0.216 |
| RRIRWRPPRLPRPRPRPFFHPRP | -0.194 |
| RRIRKRPPRLPRPRPRPVDHPRP | 0.147 |

| Sequence | shrunken log2 fold change |
| --- | --- |
| RRIRFRPPRLPRPRPRPCDIPRP | -0.0737 |
| RRIRVRPPRLPRPRPRPGLYPRP | -0.384 |
| RRIRDRPPRLPRPRPRPNVRPRP | -0.275 |
| RRIRNRPPRLPRPRPRPDYAPRP | -0.0367 |
| RRIRGRPPRLPRPRPRPMGLPRP | -0.0139 |
| RRIRWRPPRLPRPRPRPDGLPRP | 0.393 |
| RRIRSRPPRLPRPRPRPGMEPRP | 0.148 |
| RRIRTRPPRLPRPRPRPTEKPRP | 0.015 |
| RRIRGRPPRLPRPRPRPWVCPRP | 0.0844 |
| RRIRMRPPRLPRPRPRPGCPPRP | 0.521 |
| RRIRARPPRLPRPRPRPYAPPRP | 0.162 |
| RRIRARPPRLPRPRPRPCNPPRP | -0.0307 |
| RRIRFRPPRLPRPRPRPEQAPRP | -0.0421 |
| RRIRSRPPRLPRPRPRPMVTPRP | -0.134 |
| RRIRTRPPRLPRPRPRPRRLPRP | 0.172 |
| RRIRERPPRLPRPRPRPDMTPRP | 0.133 |
| RRIRWRPPRLPRPRPRPMLTPRP | 0.391 |
| RRIRIRPPRLPRPRPRPPVNPRP | -0.456 |
| RRIRQRPPRLPRPRPRPFKIPRP | -0.00995 |
| RRIRDRPPRLPRPRPRPHREPRP | 0.0506 |
| RRIRWRPPRLPRPRPRPRKTPRP | -0.0389 |
| RRIRDRPPRLPRPRPRPPGHPRP | 0.0994 |
| RRIRNRPPRLPRPRPRPVYVPRP | -0.284 |
| RRIRTRPPRLPRPRPRPFEMPRP | -0.376 |
| RRIRKRPPRLPRPRPRPMQSPRP | 0.995 |

| Sequence | shrunken log2 fold change |
| --- | --- |
| RRIRYRPPRLPRPRPRPLMMPRP | -0.692 |
| RRIRDRPPRLPRPRPRPLPDPRP | 0.701 |
| RRIRTRPPRLPRPRPRPINIPRP | -0.208 |
| RRIRYRPPRLPRPRPRPYFGPRP | 0.0143 |
| RRIRDRPPRLPRPRPRPQKSPRP | -0.11 |
| RRIRDRPPRLPRPRPRPTCMPRP | -0.0434 |
| RRIRERPPRLPRPRPRPMHEPRP | -0.401 |
| RRIRKRPPRLPRPRPRPHFIPRP | 0.136 |
| RRIRCRPPRLPRPRPRPMCRPRP | -0.274 |
| RRIRCRPPRLPRPRPRPNQTPRP | -0.185 |
| RRIRIRPPRLPRPRPRPDAVPRP | 0.0396 |
| RRIRVRPPRLPRPRPRPRTQPRP | 0.0785 |
| RRIRKRPPRLPRPRPRPYWLPRP | -0.229 |
| RRIRPRPPRLPRPRPRPPSDPRP | 0.128 |
| RRIRVRPPRLPRPRPRPWCFPRP | -0.0951 |
| RRIRHRPPRLPRPRPRPSIRPRP | -0.345 |
| RRIRYRPPRLPRPRPRPIFNPRP | -0.89 |
| RRIRHRPPRLPRPRPRPGDRPRP | 2.17 |
| RRIRTRPPRLPRPRPRPYHVPRP | -0.0196 |
| RRIRPRPPRLPRPRPRPYDSPRP | -0.977 |
| RRIRNRPPRLPRPRPRPIMPPRP | -0.225 |
| RRIRHRPPRLPRPRPRPDAVPRP | 0.0938 |
| RRIRERPPRLPRPRPRPGHIPRP | -0.0236 |
| RRIRYRPPRLPRPRPRPVADPRP | -0.127 |
| RRIRGRPPRLPRPRPRPWNEPRP | -0.14 |

| Sequence | shrunken log2 fold change |
| --- | --- |
| RRIRVRPPRLPRPRPRPRKYPRP | -0.0723 |
| RRIRYRPPRLPRPRPRPNIGPRP | -0.105 |
| RRIRKRPPRLPRPRPRPGGEPRP | 0.753 |
| RRIRQRPPRLPRPRPRPWRWPRP | -0.0392 |
| RRIRIRPPRLPRPRPRPQKLPRP | -0.277 |
| RRIRGRPPRLPRPRPRPKCSPRP | 0.704 |
| RRIRARPPRLPRPRPRPSECPRP | 0.145 |
| RRIRERPPRLPRPRPRPDMCPRP | 0.00902 |
| RRIRHRPPRLPRPRPRPMIEPRP | 0.0253 |
| RRIRIRPPRLPRPRPRPHSRPRP | -0.197 |
| RRIRFRPPRLPRPRPRPWGNPRP | 0.117 |
| RRIRYRPPRLPRPRPRPEMPPRP | -0.0307 |
| RRIRFRPPRLPRPRPRPRSDPRP | 0.193 |
| RRIRSRPPRLPRPRPRPPFGPRP | 0.398 |
| RRIRVRPPRLPRPRPRPCNIPRP | 0.0254 |
| RRIRDRPPRLPRPRPRPEQIPRP | -0.0105 |
| RRIRWRPPRLPRPRPRPTMVPRP | -0.299 |
| RRIRARPPRLPRPRPRPHPFPRP | 0.0322 |
| RRIRPRPPRLPRPRPRPMVQPRP | 0.0526 |
| RRIRTRPPRLPRPRPRPTTNPRP | -0.19 |
| RRIRYRPPRLPRPRPRPTNFPRP | -0.16 |
| RRIRRRPPRLPRPRPRPDWMPRP | 0.0919 |
| RRIRIRPPRLPRPRPRPMLAPRP | 0.0524 |
| RRIRERPPRLPRPRPRPQSGPRP | 0.00436 |
| RRIRTRPPRLPRPRPRPIDQPRP | -0.00192 |

| Sequence | shrunken log2 fold change |
| --- | --- |
| RRIRLRPPRLPRPRPRPDAVPRP | -0.199 |
| RRIRGRPPRLPRPRPRPPNDPRP | 0.76 |
| RRIRFRPPRLPRPRPRPFHNPRP | -0.622 |
| RRIRGRPPRLPRPRPRPMMMPRP | 0.574 |
| RRIRERPPRLPRPRPRPTTSPRP | -0.147 |
| RRIRSRPPRLPRPRPRPGQNPRP | 0.323 |
| RRIRHRPPRLPRPRPRPMAHPRP | 0.0179 |
| RRIRYRPPRLPRPRPRPMSNPRP | -0.709 |
| RRIRFRPPRLPRPRPRPKFEPRP | -0.081 |
| RRIRGRPPRLPRPRPRPWKNPRP | -0.138 |
| RRIRERPPRLPRPRPRPNWGPRP | 0.00892 |
| RRIRERPPRLPRPRPRPNSFPRP | -0.249 |
| RRIRVRPPRLPRPRPRPPEHPRP | -0.219 |
| RRIRDRPPRLPRPRPRPGQQPRP | -0.0114 |
| RRIRCRPPRLPRPRPRPISGPRP | 0.0437 |
| RRIRSRPPRLPRPRPRPQWRPRP | 0.11 |
| RRIRCRPPRLPRPRPRPEYAPRP | 0.204 |
| RRIRMRPPRLPRPRPRPFHLPRP | -0.0432 |
| RRIRRRPPRLPRPRPRPIPHPRP | 0.822 |
| RRIRSRPPRLPRPRPRPWSVPRP | -0.305 |
| RRIRFRPPRLPRPRPRPMVFPRP | -0.0469 |
| RRIRNRPPRLPRPRPRPSQVPRP | -0.0797 |
| RRIRVRPPRLPRPRPRPWMQPRP | -0.106 |
| RRIRARPPRLPRPRPRPAFYPRP | 0.117 |
| RRIRTRPPRLPRPRPRPNNSPRP | -0.61 |
